Results as given in US20090060925A1, “Rage Fusion Proteins and Methods of Use” (THE TRUSTEES OF COLUMBIA UNIVERSITY IN THE CITY OF, priority 2004, published 2009).

How the values were obtained:
[1] = test system: S100b/RAGE-induced production of TNF-α in THP-1 cells; assay: Inhibition of S100b/RAGE-induced production of TNF-α in THP-1 cells; format: cell-based; details: 10 μg protein, S100b 0.1 mg/ml, 24 hours
Experimental: THP-1 myeloid cells may be cultured in RPMI-1640 media supplemented with 10% FBS and induced to secrete TNF-α via stimulation of RAGE with S100b. When such stimulation occurs in the presence of a RAGE fusion protein, induction of TNF-α by S100b binding to RAGE may be inhibited.
Previous work has shown that the myeloid THP-1 cells may secrete TNF-α in response to RAGE ligands. In this assay, THP-1 cells were cultured in RPMI-1640 media supplemented with 10% FBS using a protocol provided by ATCC. […] The amount of TNF-α secreted by the THP-1 cells was measured 24 hours after the addition of the proteins to the cell culture using a commercially available ELISA kit for TNF-α (R&D Systems, Minneapolis, Minn.).

animal model of stroke = assay: Mouse model of stroke (carotid artery ligation and reperfusion, infarct); format: in vivo; details: Table 2
Experimental: In this model, the middle carotid artery of a mouse was ligated for 1 hour followed by 23 hours of reperfusion at which point the mice were sacrificed and the area of the infarct in the brain was assessed. […] Mice were injected intraperitoneally, 1 hour after the initiation of ischemia. Mice were subjected to one hour of cerebral ischemia followed by 24 hours of reperfusion. To induce ischemia, each mouse was anesthetized and body temperature was maintained at 36-37° C. by external warming. The left common carotid artery (CCA) was exposed through a midline incision in the neck. A microsurgical clip was placed around the origin of the internal carotid artery (ICA). […] After the nylon suture had been in place for 1 hour, the animal was re-anesthetized, rectal temperature was recorded and the suture was removed and the incision closed. Infarct volume was determined by anesthetizing the animals with an intraperitoneal injection of sodium pentobarbital (50 mg/kg) and then removing the brains. […] The infarct area in each section was determined with a computer-assisted image analysis system, consisting of a Power Macintosh computer equipped with a Quick Capture frame grabber card, Hitachi CCD camera mounted on a camera stand. […] The images were captured and the total area of infarct was determined over the sections. […] Summing the infarct volumes of the sections calculated the total infarct volume. […]

amyloid-beta = assay: Competition of a RAGE ligand with immobilized amyloid-beta for binding to the fusion protein; details: RAGE ligand FAC 10 μM
Experimental: The fusion protein of the present invention may also be used to identify compounds having the ability to bind to RAGE.
Known RAGE ligands were coated onto the surface of Maxisorb plates at a concentration of 5 micrograms per well. Plates were incubated at 4° C. overnight. Following ligand incubation, plates were aspirated and a blocking buffer of 1% BSA in 50 mM imidizole buffer (pH 7.2) was added to the plates for 1 hour at room temperature. The plates were then aspirated and/or washed with wash buffer (20 mM Imidizole, 150 mM NaCl, 0.05% Tween-20, 5 mM CaCl2 and 5 mM MgCl2, pH 7.2). […] The fusion protein was added at increasing dilutions of the initial sample. The RAGE fusion protein was allowed to incubate with the immobilized ligand at 37° C. for one hour after which the plate was washed and assayed for binding of the fusion protein. Binding was detected by the addition of an immunodetection complex containing a monoclonal mouse anti-human IgG1 diluted 1:11,000 to a final assay concentration (FAC) of 21 ng/100 μL, a biotinylated goat anti-mouse IgG diluted 1:500, to a FAC of […], and an avidin-linked alkaline phosphatase. […] Binding of the complex to the immobilized fusion protein was quantified by measuring conversion of PNPP to para-nitrophenol (PNP) which was measured spectrophotometrically at 405 nm. […]

Fc receptor = Fc receptor activation, TNF-α secretion from THP-1 cells; format: cell-based; details: well precoated with 10 ug/well heat aggregated protein; 24 hours
Source text: Fc stimulation results in TNF-α secretion.

B1: TTP-4000: four domain RAGE fusion protein, SEQ ID NO: 32: human RAGE amino acids 1-251 linked to CH2 and CH3 domains of human IgG (protein, listed as Homo sapiens)
chain: MAAGTAVGAWALVLSLWGAVVGAQNITARIGEPLVLKCKGAPKKPPQRLEWKLNTGRTEAWKVLSPQGGGPWDSVARVLPNGSLFLPAVGIQDEGIFRCQAMNRNGKETKSNYRVRVYQIPGKPEIVDSASELTAGVPNKVGTCVSEGSYPAGTLSWHLDGKPLVPNEKGVSVKEQTRRHPETGLFTLQSELMVTPARGGDPRPTFSCSFSPGLPRHRALRTAPIQPRVWEPVPLEEVQLVVEPEGGAVAPPSVFLFPPKPKDTLMISRTPEVTCVVVDVSHEDPEVKFNWYVDGVEVHNAKTKPREEQYNSTYRVVSVLTVLHQDWLNGKEYKCKVSNKALPAPIEKTISKAKGQPREPQVYTLPPSRDELTKNQVSLTCLVKGFYPSDIAVEWESNGQPENNYKTTPPVLDSDGSFFLYSKLTVDKSRWQQGNVFSCSVMHEALHNHYTQKSLSLSPGK
Question: Which results are given for B1?
Answer: effect on S100b induction of TNF-α, in words [1]: at least as effective in blocking S100b induction of TNF-α as is sRAGE; limiting the area of infarct, compared with sRAGE (animal model of stroke): more efficacious than sRAGE; binding of fusion protein to immobilized amyloid-beta inhibited by the RAGE ligand (amyloid-beta; fusion protein initial solution diluted 1:10): completely inhibited; binding of fusion protein to immobilized amyloid-beta inhibited by the RAGE ligand (amyloid-beta; fusion protein initial solution diluted 1:30): completely inhibited; TNF secreted by THP-1 cells (Fc receptor): less than 2 ng/well
